# Source: US7138249B2, “Screening method” (Takeda Pharmaceutical Company Limited, priority 2000, dated 2006)
# Biological target: T1, TGR-1-expressing CHO cells (Homo sapiens, UniProt Q9GZQ4, A395T)
# T1 construct: expressed in transfected cells; host or cells: CHO cells
# Experiment: Site sensor assay of extracellular acidification rate in TGR-1-expressing CHO cells versus mock CHO cells
# Assay type: cell-based
# Settings: exposed to the cells for 7 minutes and 2 seconds; step-wise decreased concentrations; compared with mock CHO cells; 3 cycles before exposure set as 100%
# Description: In the site sensor assay, pig Neuromedin U-8 at the concentrations indicated in FIG. 1 was reacted to TGR-1-expressing CHO cells (●) and mock CHO cells (◯) for 7 minutes and 2 seconds. The maximum of acidification rate during the reaction was plotted.
# [10] TGR-1-expressing cells changes extracellular pH (acidification rate) in response to Neuromedin U. By measuring such change with a site sensor device (Molecular Device), the activity of Neuromedin U can be measured. The details of screening method for the compound that alters the binding between Neuromedin U and TGR-1 by measuring the extracellular pH change with the site sensor device are as follows.
# TGR-1-expressing cells are cultivated in a capsule of the site sensor over night. […] After the pH becomes stable, measured is the pH change of the medium caused by refluxing the medium containing Neuromedin U or Neuromedin U and a test compound on the cells. An influence of the compound that alter the binding of Neuromedin U and TGR-1 can be measured by comparing the change of extracellular pH in TGR-1-expressing cells with that by the single administration of Neuromedin U. The compound that inhibits the change of extracellular pH by administrating Neuromedin U can be selected as a candidate substance that is capable of altering the binding property between Neuromedin U and TGR-1. […]
# T1 sequence (Q9GZQ4 whole entry A395T): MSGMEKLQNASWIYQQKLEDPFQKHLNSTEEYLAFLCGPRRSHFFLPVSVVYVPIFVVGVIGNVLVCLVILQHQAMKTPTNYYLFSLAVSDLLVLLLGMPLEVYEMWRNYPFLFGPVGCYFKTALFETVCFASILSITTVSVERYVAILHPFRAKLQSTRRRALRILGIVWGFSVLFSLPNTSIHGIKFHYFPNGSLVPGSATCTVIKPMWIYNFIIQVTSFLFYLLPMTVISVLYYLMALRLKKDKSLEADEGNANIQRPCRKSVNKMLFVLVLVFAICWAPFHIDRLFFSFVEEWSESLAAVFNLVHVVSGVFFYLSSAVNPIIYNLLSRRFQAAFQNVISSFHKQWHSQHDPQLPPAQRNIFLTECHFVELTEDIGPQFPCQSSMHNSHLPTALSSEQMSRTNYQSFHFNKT
substance,measurement,value
"Pig Neuromedin U-8: Pig Neuromedin U-8 peptide of 8 amino acid residues (BACHEM, H-5505, SEQ ID NO:5), ligand of TGR-1","TGR-1 receptor-specific cell-stimulating activity (peak acidification rate, rate of change in extracellular pH)",reacted to Neuromedin U in a specific and does-dependent manner
